{"source": "paper doi:10.1101/2020.09.22.308338", "about": "(bioRxiv, 2020)", "binders": {"B1": {"name": "nanobody NM1230 (VHH)", "VHH": "QVQLVESGGGLVRPGGSLRLSCVGSGFTFSGYAMNWYRQAPGKALELVAGISNAGDLTHYEEPMKGRVAISRANDKNTVYLQMDDLKPEDTAVYRCHAPGVRVGTGERKDVWGQGAQVTVSS"}}, "molecular_target": "stabilized homotrimeric spike protein of SARS-CoV-2 (SARS-CoV-2 (Wuhan-Hu-1 sequence, strain …, UniProt P0DTC2, stabilised))", "experiment": "bead-based multiplex ACE2 competition assay", "data": [{"binder": "B1", "values": [{"measurement": "binding result", "result": "binds"}]}]}
